Results: the supplement of paper PMC9170038

Tested on: MS2 coat protein
Test: apparent KD of MS2 coat protein; designed switch direction (-1 OFF switch, 1 ON switch): -1; higher = weaker reporter binding
Summary of the method: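 The apparent KD reported per design is the median over clusters of curve fits to normalised cluster fluorescence. The RNA switches were transcribed on Illumina chips by stalled E. coli RNA polymerase. SNAP-549-labelled MS2 coat protein was titrated from 0.7 or 1.5 nM, doubling up to 3 µM, in Tris-HCl pH 7.5 buffer containing KCl, MgCl2, BSA, DTT, tRNA and Tween-20, with no input, 200 uM small-molecule ligand, or an oligonucleotide input.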

[1] = Eterna round: R95, input ligand: microRNA oligo, concentration not stated
[2] = Eterna round: R95, input ligand: FMN 200 uM
[3] = Eterna round: R95, input ligand: none
[4] = input ligand: microRNA oligo, concentration not stated

Sequence | apparent KD of MS2 coat protein [1] | apparent KD of MS2 coat protein [2] | apparent KD of MS2 coat protein [3] | apparent KD of MS2 coat protein (input ligand: FMN 200 uM) | apparent KD of MS2 coat protein [4] | apparent KD of MS2 coat protein (input ligand: none)
AAGUAUAGAGGAUAUAGUAGGUACAACAUGAGGAUCACCCAUGUUCUUCAUAACGUAUUUCUAGAAGGCUGAUAAA [EX-5 Malc#27] (puzzle: Exclusion 5) | 174 nM |  |  |  |  | 
AAGUAUAGAGGAUAUAGUAGUUACAACAUGAGGAUCACCCAUGUUCUUCAUAACGUAGAUCUAGAAGGCUGAUAAA [EX-5 Malc#29] (puzzle: Exclusion 5) | 114 nM | 145 nM | 140 nM |  |  | 
AAGUCACAGGGAGGAUAUGUGAAAGGAAGUGUAACAGAAGGCCCAACGUAGGGCGAGACAUGAGGAUCACCCAUGUAUAAAAGA [PowerStrip EXNG 1.16] (Eterna round: R96, puzzle: Exclusion NG 1) |  |  |  | 28.9 nM | 20.8 nM | 25.9 nM
AAGUCUGGUGUAAGGAUAUUGUUAGACUUGGUGAGCAAGAAGGUACAUGAGGAUCACCCAUGUGGGAUACUAGC [Eternabot (Original) Solution 41] (Eterna round: R97, puzzle: Brourd's mod of Exclusion 4) |  |  |  | 40.5 nM |  | 40 nM
AAUAACAAGCAGAUCCUAAACAUGAGGAUCACCCAUGUGCUCGUCUUGUUGUACUAUCACUCGAAAGUGAUAGUACA (Eterna round: R97, puzzle: Sensor, turn-off variant 1) |  |  |  | 90.1 nM |  | 104 nM
AAUAACAAGCCGAUCCUAAACAUGAGGAUCACCCAUGUGCUCGUCUUGUAAAGUACUAUCACGAAAGUGAUAGUACA (Eterna round: R96, puzzle: Sensor v3, turn-off variant 1) |  |  |  | 18.1 nM | 220 nM | 19.3 nM
AAUAACAAGCCGAUCCUAAACAUGAGGAUCACCCAUGUGCUCGUCUUGUAAAGUACUAUCACGAAAGUGAUAGUACA (Eterna round: R97, puzzle: Sensor, turn-off variant 1) |  |  |  | 24.5 nM |  | 18 nM
AAUAACAAGCCGAUCCUAAACAUGAGGAUCACCCAUGUGCUCGUCUUGUAAAGUACUAUCACGAAAGUGAUAGUACA (puzzle: Sensor v3, turn-off variant 1) | 345 nM | 16.3 nM | 14.5 nM |  |  | 
AAUAACAAGCCGAUCCUCUACAUGAGGAUCACCCAUGUGUUCGUCUUGUAAAGUACUAUCACGAAAGUGAUAGUACA (Eterna round: R97, puzzle: Sensor, turn-off variant 1) |  |  |  | 209 nM |  | 244 nM
AAUAACAAGUUGAUCCUACACAUGAGGAUCACCCAUGUGCUCGUCUUGUCAAGUACUAUCACGAAAGUGUUAGUUCA [Mod-Hyphema] (Eterna round: R97, puzzle: Sensor, turn-off variant 1) |  |  |  | 74.7 nM |  | 263 nM
AAUAACAGAGGAUAUACUAUAAUAUGAAUAAAAUAAAUAAAACAUGAGGAUCACCCAUGUAGAAGGCUGAAUAA [JMF's Not so obvious solution 10] (puzzle: Exclusion 2) | 20 nM | 17.1 nM | 21.1 nM |  |  | 
AAUAACAGAGGAUAUACUAUUUUAUGUAUUUAUUAUUUUAAACAUGAGGAUCACCCAUGUAGAAGGCUGAGUAA [JMF 27] (puzzle: Exclusion 2) | 22.2 nM |  |  |  |  | 
AAUAACAGAGGAUAUACUAUUUUAUGUGUUUAUUGUUUUAAACAUGAGGAUCACCCAUGUAGAAGGCUGAUUAA [JMF 45] (puzzle: Exclusion 2) | 61.9 nM |  |  |  |  | 
AAUAACAGAGGAUAUACUAUUUUAUGUGUUUAUUGUUUUAAACAUGAGGAUCACCCAUGUAGAAGGCUGAUUGA [JMF 73] (puzzle: Exclusion 2) | 65.5 nM |  |  |  |  | 
AAUAACAGAGGAUAUACUAUUUUAUGUGUUUAUUGUUUUGAACAUGAGGAUCACCCAUGUAGAAGGCUGAUUAA [JMF 51] (puzzle: Exclusion 2) | 35.3 nM |  |  |  |  | 
AAUAACAGAGGAUAUACUGUUUUAUGUGUUUGUUAUUUUGAACAUGAGGAUCACCCAUGUAGAAGGCUGAUUAA [JMF 50] (puzzle: Exclusion 2) | 37.4 nM |  |  |  |  | 
AAUAACAGAGGAUAUACUGUUUUAUGUGUUUGUUGUUUUGAACAUGAGGAUCACCCAUGUAGAAGGCUGAUUGA [JMF 79] (puzzle: Exclusion 2) | 38.7 nM |  |  |  |  | 
AAUAAUACAGGAUAUACAGUUUAUUACAUGAGGAUCACCCAUGUUCUUCAAUGUAUAUAAGUAGAAGGGUAAGGAA [EX-5 Malc#1] (puzzle: Exclusion 5) | 25.1 nM | 50.9 nM | 24.3 nM |  |  | 
AAUAAUAGCGAGGAUAUCGUAUCGGAAACGAUACGAGAAGGCGUAACAUGAGGAUCACCCAUGUUCCUCAAUAA [Fiskers Ex 6 - 3] (Eterna round: R96, puzzle: Exclusion 6) |  |  |  | 354 nM | 39.8 nM | 41 nM
AAUAAUAGCGAGGAUAUCGUAUCGGAAACGAUACGAGAAGGCGUAACAUGAGGAUCACCCAUGUUCCUCAAUAA [Fiskers Ex 6 - 3] (puzzle: Exclusion 6) | 39.7 nM |  |  |  |  | 
AAUAAUCGGGCCUUCCUAAUACAUGAGGAUCACCCAUGUCUCGAGGAUAUACCAACGCACGGUCCGUAGAAGGCGAGACCACAC [Vesoonso] (Eterna round: R96, puzzle: Exclusion NG 3) |  |  |  | 24.2 nM | 13.2 nM | 21.9 nM
AAUACAAGCUAUUGAUCCCACAUGAGGAUCACCCAUGUGCCUGGCCGUGAGACCAGGUUUACAAUAGCUCGUCUUAU [Sensor-V1 #47] (Eterna round: R97, puzzle: Sensor, turn-off variant 1) |  |  |  | 23.5 nM |  | 23.5 nM
AAUACACAUGAGGAUCACCCAUGUUAGGAUAUUCGCGGGAAAGCUGUCAAAACGCCGAGGAGAAGGAACAGGAA [Excls1-X] (puzzle: Exclusion 1) | 33.7 nM | 40 nM | 45.7 nM |  |  | 
AAUAGCAAGUAAGAUCCUAACAUGAGGAUCACCCAUGUGCUCGUCUUGUAAAGUACUAUCACGAAAGUGAUAGUACA [Sensor 3, v1 - 50] (puzzle: Sensor v3, turn-off variant 1) | 69.4 nM | 108 nM | 146 nM |  |  | 
AAUCAUAGGUAAGGAUAUGAAGAUCUGGUGGUGACAUGAGGAUCACCCAUGUGAAAACGAUGAGAUCAGAAGGUACAAUAUGAA [AK ExNG2-4] (Eterna round: R96, puzzle: Exclusion NG 2) |  |  |  | 108 nM | 18 nM | 88.3 nM
AAUCCACAUGAGGAUCACCCAUGUCAGGAUAUGGUGACGCGGGUUUCGGUGCGUGUUGCCAGAAGGGACGGCUG (puzzle: Exclusion 1) | 23.8 nM |  |  |  |  | 
AAUCCUAGCGUAAGGAUAUCAAAACUAUCCCGUUAUGAGAAGGUACAUGAGGAUCACCCAUGUUAAUGGGAUAA [BmEX4 A.19] (Eterna round: R97, puzzle: Brourd's mod of Exclusion 4) |  |  |  | 20.2 nM |  | 19.3 nM
AAUGAUUGACGAGGAUAUUGUGGUGAAACACGACGAGAAGGCGUAUGUCACAUGAGGAUCACCCAUGUGAACUUUGUGGAUAUA [Ex NG1 #70] (Eterna round: R96, puzzle: Exclusion NG 1) |  |  |  | 30.4 nM | 33.3 nM | 38.8 nM
